Data set [1] addresses T1, Telomere Repeat-binding Factor 1 (TRF1), full-length human (human, UniProt P54274 1-439, Alexa Fluor 594 or Alexa Fluor 488 label where used labeled (site not stated); unlabeled where used as competitor and in MST).
T1 construct: TRF1, human, full-length; Removal of the His tag is not mentioned
T1 sequence (looked up): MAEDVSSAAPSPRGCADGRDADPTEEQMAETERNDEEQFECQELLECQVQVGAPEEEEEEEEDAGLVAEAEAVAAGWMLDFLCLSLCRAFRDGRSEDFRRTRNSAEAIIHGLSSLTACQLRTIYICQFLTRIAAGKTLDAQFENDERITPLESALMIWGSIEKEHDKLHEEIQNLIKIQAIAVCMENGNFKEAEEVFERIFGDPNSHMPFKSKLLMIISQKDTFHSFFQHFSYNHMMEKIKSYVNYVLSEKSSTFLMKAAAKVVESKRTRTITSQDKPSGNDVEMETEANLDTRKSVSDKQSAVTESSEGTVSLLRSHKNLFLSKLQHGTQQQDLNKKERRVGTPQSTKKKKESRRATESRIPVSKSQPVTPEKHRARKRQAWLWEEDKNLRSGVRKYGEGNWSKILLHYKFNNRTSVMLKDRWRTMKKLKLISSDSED
In words: MST; Alexa Fluor 488 labeled TIN2 incubated with different concentrations of TRF1 or TRF2; 50 mM sodium phosphate pH 7.0, 50 mM NaCl; 12 °C; apparent KD. As to conditions: both partners purified.

Data set [2] addresses T2, Telomere Repeat-binding Factor 2 (TRF2), full-length human (human, UniProt Q15554 1-542, Alexa Fluor 594 or Alexa Fluor 488 label where used labeled (site not stated); unlabeled where used as competitor and in MST).
T2 construct: TRF2, human, full-length; Removal of the His tag is not mentioned
T2 sequence (looked up): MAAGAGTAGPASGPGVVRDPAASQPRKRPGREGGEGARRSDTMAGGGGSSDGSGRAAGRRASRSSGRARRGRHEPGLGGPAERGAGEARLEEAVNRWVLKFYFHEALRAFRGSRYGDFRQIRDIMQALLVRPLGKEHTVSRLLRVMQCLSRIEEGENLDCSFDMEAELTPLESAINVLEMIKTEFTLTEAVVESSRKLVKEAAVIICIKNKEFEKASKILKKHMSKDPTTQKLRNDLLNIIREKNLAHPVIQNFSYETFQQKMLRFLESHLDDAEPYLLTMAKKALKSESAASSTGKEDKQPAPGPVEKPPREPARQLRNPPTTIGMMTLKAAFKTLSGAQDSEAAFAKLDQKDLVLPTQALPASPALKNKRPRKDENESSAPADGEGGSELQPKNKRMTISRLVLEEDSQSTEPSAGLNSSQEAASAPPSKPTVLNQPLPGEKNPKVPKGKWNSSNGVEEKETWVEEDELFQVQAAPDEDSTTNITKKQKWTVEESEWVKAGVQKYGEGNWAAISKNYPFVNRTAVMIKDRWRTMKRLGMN
The data set is described as above. As to conditions: both partners purified.

The target of another data set is TRF1;TIN2 (human;human, UniProt P54274;Q9BSI4 1-439;1-451, |). In words: fluorescence anisotropy; TRF1 5 uM:TIN2 2.5 uM (2:1) stock titrated into 7.5 nM DNA; KD only in figure; 50 mM sodium phosphate pH 7.0, 50 mM NaCl, 25 C; 7.5 nM Alexa Fluor 488-labeled DNA; 2 min incubation per titration step. As to conditions: protein: recombinant;recombinant; chain copies: 2;1; (described only as annealed with its complementary strand).

B1: TRF1-Interacting Nuclear factor 2 (TIN2), full-length human (natural protein)
chain: ATPLVAGPAALRFAAAASWQVVRGRCVEHFPRVLEFLRSLRAVAPGLVRYRHHERLCMGLKAKVVVELILQGRPWAQVLKALNHHFPESGPIVRDPKATKQDLRKILEAQETFYQQVKQLSEAPVDLASKLQELEQEYGEPFLAAMEKLLFEYLCQLEKALPTPQAQQLQDVLSWMQPGVSITSSLAWRQYGVDMGWLLPECSVTDSVNLAEPMEQNPPQQQRLALHNPLPKAKPGTHLPQGPSSRTHPEPLAGRHFNLAPLGRRRVQSQWASTRGGHKERPTVMLFPFRNLGSPTQVISKPESKEEHAIYTADLAMGTRAASTGKSKSPCQTLGGRALKENPVDLPATEQKENCLDCYMDPLRLSLLPPRARKPVCPPSLCSSVITIGDLVLDSDEEENGQGEGKESLENYQKTKFDTLIPTLCEYLPPSGHGAIPVSSCDCRDSSRPL
modifications: Alexa Fluor 488 label where used labeled (site not stated); unlabeled in the TRF1/TRF2 cross-correlation experiment and in SEC
As to B1, the Kd is 240 nM in data set [1] and 360 nM in data set [2].

B2: R5 telomeric duplex (five repeats) (dsDNA)
DNA 1: GTTAGGGTTAGGGTTAGGGTTAGGGTTAGGGTTAG
DNA 2: CTAACCCTAACCCTAACCCTAACCCTAACCCTAAC
In the case of B2, the binding result with TRF1;TIN2 was “binds”.

Source of the values: publication doi:10.1101/436014, “Human telomere repeat binding factor TRF1 replaces TRF2 bound to shelterin core hub TIN2 when TPP1 is absent” (bioRxiv, 2018).
